The values below come from PMC9599461, “Stereoselectivity in the Membrane Transport of Phenylethylamine Derivatives by Human Monoamine Transporters and Organic Cation Transporters 1, 2, and 3” (Biomolecules, 2022).

Several values for one entry are separate records, joined by “and”; a condition that tells them apart may be missing. Equal entries are not always repeated.

The test system of data set [1] is Alpha-1 adrenoreceptor. As to conditions: cited from earlier work.
Data set [2] concerns the target T1, OCT2 (wild-type) (Homo sapiens, UniProt O15244).
T1 sequence (O15244 1-555 S270A): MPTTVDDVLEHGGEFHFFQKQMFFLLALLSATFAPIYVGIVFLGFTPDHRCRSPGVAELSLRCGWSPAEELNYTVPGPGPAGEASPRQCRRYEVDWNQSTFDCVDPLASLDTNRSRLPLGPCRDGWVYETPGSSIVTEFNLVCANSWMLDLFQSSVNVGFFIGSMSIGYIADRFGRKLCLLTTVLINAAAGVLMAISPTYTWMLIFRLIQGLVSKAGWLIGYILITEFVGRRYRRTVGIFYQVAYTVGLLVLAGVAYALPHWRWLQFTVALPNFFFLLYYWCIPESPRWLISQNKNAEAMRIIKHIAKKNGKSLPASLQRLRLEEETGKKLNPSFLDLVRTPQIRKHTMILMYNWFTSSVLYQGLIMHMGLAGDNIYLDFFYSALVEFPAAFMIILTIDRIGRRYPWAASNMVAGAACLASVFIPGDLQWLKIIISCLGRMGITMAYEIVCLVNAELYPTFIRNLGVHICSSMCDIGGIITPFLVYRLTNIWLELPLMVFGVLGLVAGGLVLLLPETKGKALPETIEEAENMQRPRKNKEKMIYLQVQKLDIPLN
Description: Stereoselective uptake into OCT2 (wild-type)-overexpressing HEK293 cells. As to conditions: human, Stereoselectivity OCT2_WT, 100 μM racemic substance, two minutes; uptake ratio of enantiomers, given as for (R).

Data set [3] addresses T2, OCT3 (Homo sapiens, UniProt O75751).
T2 sequence (O75751 1-556): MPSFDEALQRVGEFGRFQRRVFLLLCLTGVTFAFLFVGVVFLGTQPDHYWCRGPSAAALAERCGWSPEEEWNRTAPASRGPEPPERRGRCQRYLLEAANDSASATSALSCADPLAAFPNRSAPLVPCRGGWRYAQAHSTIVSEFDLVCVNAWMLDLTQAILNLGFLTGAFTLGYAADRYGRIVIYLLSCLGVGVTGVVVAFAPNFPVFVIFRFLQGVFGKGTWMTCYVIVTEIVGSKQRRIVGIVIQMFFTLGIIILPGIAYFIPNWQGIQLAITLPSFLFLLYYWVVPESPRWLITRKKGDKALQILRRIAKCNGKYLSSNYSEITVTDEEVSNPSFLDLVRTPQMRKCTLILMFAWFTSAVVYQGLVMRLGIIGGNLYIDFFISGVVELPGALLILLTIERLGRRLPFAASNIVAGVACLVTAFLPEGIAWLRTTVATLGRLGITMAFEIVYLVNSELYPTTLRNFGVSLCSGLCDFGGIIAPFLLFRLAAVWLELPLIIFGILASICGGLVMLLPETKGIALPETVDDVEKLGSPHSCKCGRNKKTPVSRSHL
Description: Stereoselective uptake into OCT3-overexpressing HEK293 cells.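 Also: intracellular accumulation in HEK293 cells measured by chiral HPLC-MS/MS after a 2 min substrate exposure at 37 °C, uptake normalized to total protein (bicinchoninic acid assay).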 As to conditions: OCT3; ratio between enantiomers, given as for (R) or for 1.

Data set [4] deals with OCT2 A270S variant. Kind of data set: in vitro. As to conditions: human, Stereoselectivity OCT2_A270S, 100 μM racemic substance, two minutes; uptake ratio of enantiomers, given as for (R).
The subject of data set [5] is Alpha-2 adrenoreceptor. Details: method as in PMID 2833972. As to conditions: cited from earlier work.
For data set [6], the system named is COc1cc(C(O)CN)ccc1O. Description: cells, lysate or membranes. As to conditions: other: HEK293 cells overexpressing human SERT; racemic substrate, two minutes; net uptake minus empty vector control; 37.0 °C.
Data set [7] has as its system [H][C@](O)(CNC)c1ccc(O)cc1. Kind of data set: cells, lysate or membranes. As to conditions: other: HEK293 cells overexpressing human SERT; racemic substrate, two minutes; net uptake minus empty vector control; 37.0 °C.
Data set [8] deals with NC[C@H](O)c1ccc(O)cc1. Kind of data set: cells, lysate or membranes. As to conditions: other: HEK293 cells overexpressing human SERT; racemic substrate, two minutes; net uptake minus empty vector control; 37.0 °C.
For data set [9], the system named is CNC[C@@H](O)c1ccc(O)cc1. Description: cells, lysate or membranes. As to conditions: other: HEK293 cells overexpressing human SERT; racemic substrate, two minutes; net uptake minus empty vector control; 37.0 °C.
The test system of data set [10] is CNCC(O)c1ccc(O)c(OC)c1. Kind of data set: cells, lysate or membranes. As to conditions: other: HEK293 cells overexpressing human SERT; racemic substrate, two minutes; net uptake minus empty vector control; 37.0 °C.
Data set [11] has as its system NCC(O)c1cccc(O)c1. Kind of data set: cells, lysate or membranes. As to conditions: other: HEK293 cells overexpressing human SERT; racemic substrate, two minutes; net uptake minus empty vector control; 37.0 °C.
Data set [12] relates to NC[C@@H](O)c1ccc(O)cc1. Description: cells, lysate or membranes. As to conditions: other: HEK293 cells overexpressing human SERT; racemic substrate, two minutes; net uptake minus empty vector control; 37.0 °C.
Substrate in data set [13]: NCC(O)c1cccc(O)c1
Kind of data set: cells, lysate or membranes. As to conditions: other: HEK293 cells overexpressing human OCT2; racemic substrate, two minutes; net uptake minus empty vector control; 37.0 °C.

Substrate in data set [14]: CNC[C@@H](O)c1cccc(O)c1
Kind of data set: cells, lysate or membranes. As to conditions: other: HEK293 cells overexpressing human OCT2; racemic substrate, two minutes; net uptake minus empty vector control; 37.0 °C.

Substrate in data set [15]: CNC[C@@H](O)c1ccc(O)cc1
Description: cells, lysate or membranes. As to conditions: other: HEK293 cells overexpressing human OCT2; racemic substrate, two minutes; net uptake minus empty vector control; 37.0 °C.

Substrate in data set [16]: [H][C@](O)(CNC)c1ccc(O)cc1
Kind of data set: cells, lysate or membranes. As to conditions: other: HEK293 cells overexpressing human OCT2; racemic substrate, two minutes; net uptake minus empty vector control; 37.0 °C.

Substrate in data set [17]: CNCC(O)c1ccccc1
Description: cells, lysate or membranes. As to conditions: other: HEK293 cells overexpressing human OCT2; racemic substrate, two minutes; net uptake minus empty vector control; 37.0 °C.

Substrate in data set [18]: CNCC(O)c1ccc(O)c(OC)c1
Kind of data set: cells, lysate or membranes. As to conditions: other: HEK293 cells overexpressing human OCT2; racemic substrate, two minutes; net uptake minus empty vector control; 37.0 °C.

Substrate in data set [19]: NC[C@H](O)c1ccc(O)cc1
Kind of data set: cells, lysate or membranes. As to conditions: other: HEK293 cells overexpressing human OCT2; racemic substrate, two minutes; net uptake minus empty vector control; 37.0 °C.

Substrate in data set [20]: CNC[C@H](O)c1cccc(O)c1
Kind of data set: cells, lysate or membranes. As to conditions: other: HEK293 cells overexpressing human OCT2; racemic substrate, two minutes; net uptake minus empty vector control; 37.0 °C.

Substrate in data set [21]: COc1cc(C(O)CN)ccc1O
Kind of data set: cells, lysate or membranes. As to conditions: other: HEK293 cells overexpressing human OCT2; racemic substrate, two minutes; net uptake minus empty vector control; 37.0 °C.

With `CNC[C@H](O)c1cccc(O)c1` [Phenylephrine], the “Enantiomeric Activity Ratio (R/S) in Receptor Binding Alpha-1” value in [1] is given as 420. Besides, the selectivity ratio at 2 min, 100 μM was 1.3 in [2] and 1.16 in data set [4]. In addition, the “Stereoselectivity Vmax” value in data set [3] is recorded as 3.3 fold. Moreover, the “Enantiomeric Activity Ratio (R/S) in Receptor Binding Alpha-2” value in data set [5] is given as 45.
On to `NCC(O)c1cccc(O)c1` (centres unmarked) [Norphenylephrine], for which, in [1], the “Enantiomeric Activity Ratio (R/S) in Receptor Binding Alpha-1” value is 8. Besides, the selectivity ratio at 2 min, 100 μM came out at 1.54 in data set [2] and 1.46 in data set [4]. The “Stereoselectivity Vmax” value in data set [3] amounted to 3.9 fold. Further, in data set [5], the “Enantiomeric Activity Ratio (R/S) in Receptor Binding Alpha-2” value is 3.
As for SERT (Homo sapiens), the Km (in general, the concentration of substrate that gives half-maximal velocity) in [6] is 42.0 µM and 38.7 µM; in [7], 528 µM; in data set [8], 59.6 µM; in data set [9], 804 µM; in [10], 151 µM and 165 µM; in data set [11] it was 333 µM and 277 µM. Moreover, the Km in data set [12] is 42.9 µM. Besides, the Vmax in data set [6] is 93.6 pmol × mg Protein^−1 × min^−1 and 157 pmol × mg Protein^−1 × min^−1; in data set [7], 363 pmol × mg Protein^−1 × min^−1; in [8], 247 pmol × mg Protein^−1 × min^−1; in data set [9] it was 491 pmol × mg Protein^−1 × min^−1; in data set [10], 87.4 pmol × mg Protein^−1 × min^−1 and 94.5 pmol × mg Protein^−1 × min^−1; in data set [11], 400 pmol × mg Protein^−1 × min^−1 and 508 pmol × mg Protein^−1 × min^−1. Moreover, in data set [12], the Vmax is listed as 104 pmol × mg Protein^−1 × min^−1.

B1: OCT2 (Homo sapiens; S270A) (protein)
chain: MPTTVDDVLEHGGEFHFFQKQMFFLLALLSATFAPIYVGIVFLGFTPDHRCRSPGVAELSLRCGWSPAEELNYTVPGPGPAGEASPRQCRRYEVDWNQSTFDCVDPLASLDTNRSRLPLGPCRDGWVYETPGSSIVTEFNLVCANSWMLDLFQSSVNVGFFIGSMSIGYIADRFGRKLCLLTTVLINAAAGVLMAISPTYTWMLIFRLIQGLVSKAGWLIGYILITEFVGRRYRRTVGIFYQVAYTVGLLVLAGVAYALPHWRWLQFTVALPNFFFLLYYWCIPESPRWLISQNKNAEAMRIIKHIAKKNGKSLPASLQRLRLEEETGKKLNPSFLDLVRTPQIRKHTMILMYNWFTSSVLYQGLIMHMGLAGDNIYLDFFYSALVEFPAAFMIILTIDRIGRRYPWAASNMVAGAACLASVFIPGDLQWLKIIISCLGRMGITMAYEIVCLVNAELYPTFIRNLGVHICSSMCDIGGIITPFLVYRLTNIWLELPLMVFGVLGLVAGGLVLLLPETKGKALPETIEEAENMQRPRKNKEKMIYLQVQKLDIPLN
For the molecule B1, the Km in [13] is 911 µM and 582 µM; in [14], 112 µM; in data set [15] it was 214 µM; in [16], 443 µM; in [17] it was 12.8 µM and 19.3 µM; in data set [18], 54.7 µM and 68.1 µM. Also, the Km in data set [19] was 636 µM; in data set [20], 212 µM; in data set [21] it was 464 µM and 613 µM. Also, the Vmax in [13] is 33143 pmol × mg Protein^−1 × min^−1 and 15157 pmol × mg Protein^−1 × min^−1; in data set [14], 3068 pmol × mg Protein^−1 × min^−1; in data set [15], 5307 pmol × mg Protein^−1 × min^−1; in [16], 10877 pmol × mg Protein^−1 × min^−1; in data set [17], 329 pmol × mg Protein^−1 × min^−1 and 261 pmol × mg Protein^−1 × min^−1; in [19], 25182 pmol × mg Protein^−1 × min^−1. In addition, the Vmax in data set [20] is 6263 pmol × mg Protein^−1 × min^−1; in data set [21] it was 2747 pmol × mg Protein^−1 × min^−1 and 5665 pmol × mg Protein^−1 × min^−1.
